In publication PMC2645917 (2008):

Biological target: F29 7-36 (Homo sapiens, UniProt P01275, Ile29 replaced by hexafluoroleucine, C-terminal amide)
Test: competition binding with [125I]-Ex

B1: GLP-1 receptor (protein)
chain: RPQGATVSLWETVQKWREYRRQCQRSLTEDPPPATDLFCNRTFDEYACWPDGEPGSFVNVSCPWYLPWASSVPQGHVYRFCTAEGLWLQKDNSSLPWRDLSECEESKRGERSSPEEQLLFLYIIYTVGYALSFSALVIASAILLGFRHLHCTRNYIHLNLFASFILRALSVFIKDAALKWMYSTAAQQHQWDGLLSYQDSLSCRLVFLLMQYCVAANYYWLLVEGVYLYTLLAFSVLSEQWIFRLYVSIGWGVPLLFVVPWGIVKYLYEDEGCWTRNSNMNYWLIIRLPILFAIGVNFLIFVRVICIVVSKLKANLMCKTDIKCRLAKSTLTLIPLLGTHEVIFAFVMDEHARGTLRFIKLFTELSFTSFQGLMVAILYCFVNNEVQLEFRKSWERWRLEHLHIQRDSSMKPLKCPTSSLSSGATAGSSMYTATCQASCS
  IC50: 13.4 nM
